Reference: the RNAGym collection of RNA variant scans (doi:10.1093/molbev/msab373)

B1: Azoarcus group I ribozyme (parent)
chain: GUGCCUUGCGCCGGGAAACCACGCAAGGGAUGGUGUCAAAUUCGGCGAAACCUAAGCGCCCGCCCGGGCGUAUGGCAACGCCGAGCCAAGCUUCGGCGCCUGCGCCGAUGAAGGUGUAGAGACUAGACGGCACCCACCUAAGGCAAACGCUAUGGUGAAGGCAUAGUCCAGGGAGUGGCGAAAGUCACACAAACCGG

Variants of: B1
Assay: reverse-splicing fitness (ratio to wild type); higher = more active; in vitro selection; Mg2+ level not given
In short: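 An in vitro group I ribozyme library with randomized positions was T7-transcribed and gel-purified. In triplicate, 10 pmol RNA in EPPS pH 7.5 was reacted with 50 pmoles of a 30-nt RNA substrate for 1 h at 37 °C across several added MgCl2 levels (1–48 mM), then stopped with EDTA. Products were reverse transcribed from a substrate-complementary primer, PCR-amplified and sequenced (HiSeq 4000). Fitness is a variant's read proportion after selection over that before, normalised to wild type.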

| Variant | reverse-splicing fitness |
| --- | --- |
| C82A A111G A120G A145U C150A C169G U176C | 0.0169 |
| C82A A111G A120G A145U C150A C169G U176G | 0.00478 |
| C82A A111G A120G A145U C150A C169U | 0.00754 |
| C82A A111G A120G A145U C150A C169U U176A | 0.0222 |
| C82A A111G A120G A145U C150A C169U U176C | 0.0157 |
| C82A A111G A120G A145U C150A C169U U176G | 0.00457 |
| C82A A111G A120G A145U C150A U176A | 0.0117 |
| C82A A111G A120G A145U C150A U176C | 0.0154 |
| C82A A111G A120G A145U C150A U176G | 0.00563 |
| C82A A111G A120G A145U C150G | 0.00709 |
| C82A A111G A120G A145U C150G C169A | 0.00989 |
| C82A A111G A120G A145U C150G C169A U176A | 0.00976 |
| C82A A111G A120G A145U C150G C169A U176C | 0.0101 |
| C82A A111G A120G A145U C150G C169A U176G | 0.00526 |
| C82A A111G A120G A145U C150G C169G | 0.00677 |
| C82A A111G A120G A145U C150G C169G U176A | 0.00739 |
| C82A A111G A120G A145U C150G C169G U176C | 0.00461 |
| C82A A111G A120G A145U C150G C169G U176G | 0.00446 |
| C82A A111G A120G A145U C150G C169U | 0.00867 |
| C82A A111G A120G A145U C150G C169U U176A | 0.012 |
| C82A A111G A120G A145U C150G C169U U176C | 0.0132 |

| Variant | reverse-splicing fitness |
| --- | --- |
| C82A A111G A120G A145U C150G C169U U176G | 0.00483 |
| C82A A111G A120G A145U C150G U176A | 0.00605 |
| C82A A111G A120G A145U C150G U176C | 0.00837 |
| C82A A111G A120G A145U C150G U176G | 0.00378 |
| C82A A111G A120G A145U C150U | 0.0134 |
| C82A A111G A120G A145U C150U C169A | 0.0103 |
| C82A A111G A120G A145U C150U C169A U176A | 0.0141 |
| C82A A111G A120G A145U C150U C169A U176C | 0.0116 |
| C82A A111G A120G A145U C150U C169A U176G | 0.00488 |
| C82A A111G A120G A145U C150U C169G | 0.0104 |
| C82A A111G A120G A145U C150U C169G U176A | 0.014 |
| C82A A111G A120G A145U C150U C169G U176C | 0.0137 |
| C82A A111G A120G A145U C150U C169G U176G | 0.00537 |
| C82A A111G A120G A145U C150U C169U | 0.00852 |
| C82A A111G A120G A145U C150U C169U U176A | 0.0192 |
| C82A A111G A120G A145U C150U C169U U176C | 0.0152 |
| C82A A111G A120G A145U C150U C169U U176G | 0.00555 |
| C82A A111G A120G A145U C150U U176A | 0.00996 |
| C82A A111G A120G A145U C150U U176C | 0.014 |
| C82A A111G A120G A145U C150U U176G | 0.00595 |
| C82A A111G A120G A145U C169A | 0.00824 |

| Variant | reverse-splicing fitness |
| --- | --- |
| C82A A111G A120G A145U C169A U176A | 0.0117 |
| C82A A111G A120G A145U C169A U176C | 0.0121 |
| C82A A111G A120G A145U C169A U176G | 0.0046 |
| C82A A111G A120G A145U C169G | 0.0112 |
| C82A A111G A120G A145U C169G U176A | 0.0122 |
| C82A A111G A120G A145U C169G U176C | 0.0158 |
| C82A A111G A120G A145U C169G U176G | 0.00452 |
| C82A A111G A120G A145U C169U | 0.00927 |
| C82A A111G A120G A145U C169U U176A | 0.0204 |
| C82A A111G A120G A145U C169U U176C | 0.0158 |
| C82A A111G A120G A145U C169U U176G | 0.00416 |
| C82A A111G A120G A145U U176A | 0.0131 |
| C82A A111G A120G A145U U176C | 0.0167 |
| C82A A111G A120G A145U U176G | 0.00583 |
| C82A A111G A120G C150A | 0.0105 |
| C82A A111G A120G C150A C169A | 0.0103 |
| C82A A111G A120G C150A C169A U176A | 0.0228 |
| C82A A111G A120G C150A C169A U176C | 0.0184 |
| C82A A111G A120G C150A C169A U176G | 0.00588 |
| C82A A111G A120G C150A C169G | 0.00987 |
| C82A A111G A120G C150A C169G U176A | 0.0211 |

| Variant | reverse-splicing fitness |
| --- | --- |
| C82A A111G A120G C150A C169G U176C | 0.0245 |
| C82A A111G A120G C150A C169G U176G | 0.00613 |
| C82A A111G A120G C150A C169U | 0.00823 |
| C82A A111G A120G C150A C169U U176A | 0.0244 |
| C82A A111G A120G C150A C169U U176C | 0.0219 |
| C82A A111G A120G C150A C169U U176G | 0.00838 |
| C82A A111G A120G C150A U176A | 0.0129 |
| C82A A111G A120G C150A U176C | 0.0186 |
| C82A A111G A120G C150A U176G | 0.00961 |
| C82A A111G A120G C150G | 0.00686 |
| C82A A111G A120G C150G C169A | 0.00929 |
| C82A A111G A120G C150G C169A U176A | 0.0117 |
| C82A A111G A120G C150G C169A U176C | 0.0123 |
| C82A A111G A120G C150G C169A U176G | 0.00672 |
| C82A A111G A120G C150G C169G | 0.00739 |
| C82A A111G A120G C150G C169G U176A | 0.00689 |
| C82A A111G A120G C150G C169G U176C | 0.00515 |
| C82A A111G A120G C150G C169G U176G | 0.00489 |
| C82A A111G A120G C150G C169U | 0.00856 |
| C82A A111G A120G C150G C169U U176A | 0.0124 |
| C82A A111G A120G C150G C169U U176C | 0.0135 |
